Measured values published in patent US20240368288A1 (HEMOGENYX PHARMACEUTICALS, published 2024).
“And” between values parts separate entries of the source, which are not always exact repeats. Equal entries are not always repeated.

Tests used:
[1] = target: T1, Recombinant Human CD3 epsilon Fc Chimera Protein (R&D, no. 9850-CD-050) (human, UniProt P07766 23-126); experiment: ELISA, plate coated with recombinant human CD3 epsilon Fc chimera
T1 construct: Bought reagent; Fc part of the bought chimera not given
T1 sequence (P07766 23-126, change not shown): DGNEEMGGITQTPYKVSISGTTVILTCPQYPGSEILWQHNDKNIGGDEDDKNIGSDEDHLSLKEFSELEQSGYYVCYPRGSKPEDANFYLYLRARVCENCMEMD
Experimental: The plate was washed with wash buffer (PBS (Caisson Labs, no. PBL06)+0.05% Tween20 (ThermoFisher, no. 28320)) The plate was blocked with blocking buffer (PBS (Caisson Labs, no. PBL06)+1% (w/v) BSA (Rockland, no. BSA-50)+0.05% Tween20 (ThermoFisher, no 28320)) for two hours at room temperature (RT). Plate was washed twice with wash buffer. […] Plate was washed 4× with wash buffer. Plate was incubated with 100 μL per well of 1:200 goat anti-human lambda-HRP secondary antibody (SouthernBiotech, no. 2070-05) for one hour at RT. Plate was washed 4× with wash buffer. Plate was incubated with 100 μL per well of TMB Substrate (ThermoFisher Cat #34029) for 20 minutes protected from light. Stop solution (2N H₂SO₄) was added to each well. Absorbance of wells was recorded at 450 nm on an Envision plate reader (PerkinElmer). […] Variable slope (four parameters) curve was fit to the data and EC50 was used to compare binding affinities.

[2] = target: T2, human FLT3 (Fms Related Receptor Tyrosine Kinase 3) expressed on cells (human, UniProt P36888 27-993); experiment: cell-based or functional assay
T2 sequence (looked up): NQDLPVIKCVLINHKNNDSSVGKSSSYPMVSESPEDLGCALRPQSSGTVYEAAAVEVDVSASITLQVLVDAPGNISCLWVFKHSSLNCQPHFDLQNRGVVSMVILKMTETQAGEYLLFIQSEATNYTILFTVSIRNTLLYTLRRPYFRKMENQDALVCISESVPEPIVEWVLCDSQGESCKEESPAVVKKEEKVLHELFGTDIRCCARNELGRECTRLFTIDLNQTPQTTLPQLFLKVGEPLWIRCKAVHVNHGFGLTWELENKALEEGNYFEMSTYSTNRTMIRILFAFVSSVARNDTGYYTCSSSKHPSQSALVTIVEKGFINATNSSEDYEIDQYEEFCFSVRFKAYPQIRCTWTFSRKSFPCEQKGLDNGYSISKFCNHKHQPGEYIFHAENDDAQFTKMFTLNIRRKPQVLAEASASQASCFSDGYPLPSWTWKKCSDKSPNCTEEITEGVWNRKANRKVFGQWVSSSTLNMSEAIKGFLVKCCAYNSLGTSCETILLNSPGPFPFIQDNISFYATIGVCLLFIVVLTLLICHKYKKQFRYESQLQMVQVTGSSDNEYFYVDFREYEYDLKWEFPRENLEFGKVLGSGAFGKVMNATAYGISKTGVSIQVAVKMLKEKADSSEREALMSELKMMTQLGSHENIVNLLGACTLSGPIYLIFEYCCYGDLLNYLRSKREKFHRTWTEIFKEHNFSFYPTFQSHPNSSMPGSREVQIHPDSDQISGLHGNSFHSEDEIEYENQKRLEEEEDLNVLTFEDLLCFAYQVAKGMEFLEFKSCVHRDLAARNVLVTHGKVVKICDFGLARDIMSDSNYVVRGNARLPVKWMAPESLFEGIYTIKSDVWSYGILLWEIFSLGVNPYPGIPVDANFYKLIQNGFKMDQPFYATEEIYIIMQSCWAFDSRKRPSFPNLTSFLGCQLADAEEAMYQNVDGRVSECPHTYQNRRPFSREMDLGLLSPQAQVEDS

[3] = target: T3, human CD3 on the surface of T cells / Jurkat cells (human, UniProt P07766 23-207; P09693 23-182; P04234 22-171); experiment: flow cytometry on CD3+ human T cells
T3 construct: whole, on cells
T3 sequence (P07766 23-207, chain 1 of 3): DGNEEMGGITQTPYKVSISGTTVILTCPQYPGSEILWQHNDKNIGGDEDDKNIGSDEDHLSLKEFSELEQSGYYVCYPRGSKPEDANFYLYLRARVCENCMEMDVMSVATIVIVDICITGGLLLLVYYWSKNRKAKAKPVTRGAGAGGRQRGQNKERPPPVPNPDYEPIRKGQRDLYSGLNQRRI
T3 sequence (P09693 23-182, chain 2 of 3): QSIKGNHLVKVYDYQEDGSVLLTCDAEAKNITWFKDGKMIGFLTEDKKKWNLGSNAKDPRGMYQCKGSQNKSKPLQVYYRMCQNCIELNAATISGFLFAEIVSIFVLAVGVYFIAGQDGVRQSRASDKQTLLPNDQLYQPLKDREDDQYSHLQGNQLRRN
T3 sequence (P04234 22-171, chain 3 of 3): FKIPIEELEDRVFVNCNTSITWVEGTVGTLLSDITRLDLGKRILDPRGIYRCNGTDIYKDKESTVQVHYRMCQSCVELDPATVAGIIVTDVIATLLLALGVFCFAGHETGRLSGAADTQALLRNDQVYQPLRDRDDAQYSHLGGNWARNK
Text: (§1) Cells were washed five times with flow buffer and stained with anti-human IgG lambda antibody conjugated to FITC (Southern Biotech 2070-02). Cells were stained with 7-AAD (7-AAD Viability Staining Solution, Biolegend 420404) followed by flow cytometry analysis.

[4] = target: T3, human CD3 on the surface of T cells / …; experiment: flow cytometry on CD3+ Jurkat cells
Text: as §1

[5] = target: T2, human FLT3 (Fms Related Receptor …); experiment: flow cytometry on FLT3+ OCI-AML cells
Text: as §1, with “analysis. […] Binding of bispecific antibody to cells should directly correlate with FLT3 expression.” for “analysis.”

[6] = target: T2, human FLT3 (Fms Related Receptor …); experiment: flow cytometry on FLT3+ MOLM-13 cells
Text: as §1, with “analysis. […] Binding of bispecific antibody to cells should directly correlate with FLT3 expression.” for “analysis.”

[7] = target: T2, human FLT3 (Fms Related Receptor …); experiment: flow cytometry on FLT3+ MV4-11 cells
Text: as §1, with “analysis. […] Binding of bispecific antibody to cells should directly correlate with FLT3 expression.” for “analysis.”

[8] = target: T3, human CD3 on the surface of T cells / …; experiment: flow cytometry on CD3+ primary T cells
Text: as §1

[9] = target: T2, human FLT3 (Fms Related Receptor …); experiment: flow cytometry on FLT3+ HL-60 cells
Text: as §1, with “analysis. […] Binding of bispecific antibody to cells should directly correlate with FLT3 expression.” for “analysis.”

[10] = target: T2, human FLT3 (Fms Related Receptor …); experiment: flow cytometry on FLT3+ THP-1 cells
Text: as §1, with “analysis. […] Binding of bispecific antibody to cells should directly correlate with FLT3 expression.” for “analysis.”

[11] = target: T2, human FLT3 (Fms Related Receptor …); experiment: flow cytometry on FLT3+ NOMO-1 cells
Text: as §1, with “analysis. […] Binding of bispecific antibody to cells should directly correlate with FLT3 expression.” for “analysis.”

[12] = target: T2, human FLT3 (Fms Related Receptor …); experiment: flow cytometry on FLT3+ REH cells
Text: as §1

[13] = target: T3, human CD3 on the surface of T cells / …; experiment: flow cytometry on primary human pan T cells from cord blood

Binder	EC50 [1]	EC50 of cytotoxicity against HL-60 [2] [nM]	EC50 of cytotoxicity against MOLM-13 [2] [nM]	EC50 of cytotoxicity against MV4-11 [2] [nM]	EC50 of cytotoxicity against NOMO-1 [2] [nM]	EC50 of cytotoxicity against OCI-AML [2] [nM]	EC50 of cytotoxicity against REH [2] [nM]	EC50 of cytotoxicity against REH cells [2]	EC50 of cytotoxicity against THP-1 [2] [nM]	EC50 [3] [nM]	EC50 [4] [nM]	EC50 [5] [nM]	EC50 [6] [nM]	EC50 [7] [nM]	EC50 [8] [nM]	EC50 [9] [nM]	EC50 [10] [nM]	EC50 [11] [nM]	EC50 [12]	EC50 [13] [nM]
CD3xFLT3 bispecific antibody 118BA #3 (bispecific antibody, human IgG1, lambda, also called #3 WT) heavy: not shown light: QAVVTQEPSFSVSPGGTVTLTCGSSTGAVTTSNYANWVQQTPGQAFRGLIGGTNKRSSGVPDRFSGSLLGDKAALTITGAQADDESDYYCALWYSNLWVFGGGTKLTVLGGQPKAAPSVTLFPPSSEELQANKATLVCLISDFYPGAVTVAWKADSSPVKAGVETTTPSKQSNNKYAASSYLSLTPEQWKSHRSYSCQVTHEGSTVEKTVAPTECS	0.011 µg/mL and 0.06 nM	0.014	0.0157	0.022	0.003	0.002	0.01	0.01 nM and 0.006 nM	0.00025	13.8	4.18	1.86	0.4	6.33	14.2	1.02	5.74	6.75	0.5 nM and 0.87 nM and 0.6 nM	
chimeric monoclonal anti-CD3 IgG SP34 clone (antibody, V domains shown) VH: EVQLVESGGGLVQPKGSLKLSCAASGFTFNTYAMNWVRQAPGKGLEWVARIRSKYNNYATYYADSVKDRFTISRDDSQSILYLQMNNLKTEDTAMYYCVRHGNFGNSYVSWFAYWGQGTLVTVSS VL: QAVVTQESALTTSPGETVTLTCRSSTGAVTTSNYANWVQEKPDHLFTGLIGGTNKRAPGVPARFSGSLIGDKAALTITGAQTEDEAIYFCALWYSNLWVFGGGTKLTVL																				3.2
